# Data from publication PMC8533005.
# How the values were obtained:
# Test in all cases: purified protein
# purified protein [1] = substrate: O=S(O)(O)=S; assay type: biochemical, Saccharomyces cerevisiae
# purified protein [2] = substrate: O=S(O)(O)=S; details: pH 7.4; 37.0 °C
# purified protein [3] = substrate: O=S(O)(O)=S; assay type: biochemical, Homo sapiens; details: Reaction 1, sulfur donor, fixed KCN, 300 mM HEPES pH 7.4, room temperature
# Source text: thiosulfate:cyanide sulfurtransferase, ferric thiocyanate colorimetry, Michaelis-Menten fit on TST
# [4] = Reaction 1, sulfur donor, fixed KCN, 300 mM HEPES pH 7.4, 25 °C
protein,measurement,setting,value
"RDL2 (Saccharomyces cerevisiae S288C) (protein, His-tagged, pET30a, E. coli BL21(DE3), Ni-NTA and size exclusion; no firm dimer in crystal; active-site loop CAKGVR with Cys106 and Arg111) MFKHSTGILSRTVSARSPTLVLRTFTTKAPKIYTFDQVRNLVEHPNDKKLLVDVREPKEVKDYKMPTTINIPVNSAPGALGLPEKEFHKVFQFAKPPHDKELIFLCAKGVRAKTAEELARSYGYENTGIYPGSITEWLAKGGADVKPKK",Km,purified protein [1]; [4],32.5 ± 3.50 mM
same,kcat,purified protein [1]; [4],15.32 s⁻¹
"RDL2 (Saccharomyces cerevisiae S288C; K108A) (protein, His-tagged, pET30a, E. coli BL21(DE3), Ni-NTA and size exclusion; no firm dimer in crystal; active-site loop CAKGVR with Cys106 and Arg111) MFKHSTGILSRTVSARSPTLVLRTFTTKAPKIYTFDQVRNLVEHPNDKKLLVDVREPKEVKDYKMPTTINIPVNSAPGALGLPEKEFHKVFQFAKPPHDKELIFLCAAGVRAKTAEELARSYGYENTGIYPGSITEWLAKGGADVKPKK",Km,purified protein [1]; [4],93.23 ± 2.67 mM
same,kcat,purified protein [1]; [4],8.71 s⁻¹
RDL1 (Saccharomyces cerevisiae S288C) (protein) MWKAVMNAWNGTESQSKNVSNIQSYSFEDMKRIVGKHDPNVVLVDVREPSEYSIVHIPASINVPYRSHPDAFALDPLEFEKQIGIPKPDSAKELIFYCASGKRGGEAQKVASSHGYSNTSLYPGSMNDWVSHGGDKLDL,Km,purified protein [1]; pH 7.4,4.0 ± 0.4 mM
TST (Homo sapiens; T253V) (protein) MVHQVLYRALVSTKWLAESIRTGKLGPGLRVLDASWYSPGTREARKEYLERHVPGASFFDIEECRDTASPYEMMLPSEAGFAEYVGRLGISNHTHVVVYDGEHLGSFYAPRVWWMFRVFGHRTVSVLNGGFRNWLKEGHPVTSEPSRPEPAVFKATLDRSLLKTYEQVLENLESKRFQLVDSRSQGRFLGTEPEPDAVGLDSGHIRGAVNMPFMDFLTEDGFEKGPEELRALFQTKKVDLSQPLIATCRKGVVACHVALAAYLCGKPDVAVYDGSWSEWFRRAPPESRVSQGKSEKA,Km,purified protein [2],2.43 ± 0.70 mM
same,kcat,purified protein [2],0.025 s⁻¹
"TST (Homo sapiens) (protein, codon-optimized synthetic gene, pET30a, E. coli BL21(DE3), Ni-NTA and size exclusion; tandem-domain rhodanese, active-site loop CRKGVT ending in Thr253) MVHQVLYRALVSTKWLAESIRTGKLGPGLRVLDASWYSPGTREARKEYLERHVPGASFFDIEECRDTASPYEMMLPSEAGFAEYVGRLGISNHTHVVVYDGEHLGSFYAPRVWWMFRVFGHRTVSVLNGGFRNWLKEGHPVTSEPSRPEPAVFKATLDRSLLKTYEQVLENLESKRFQLVDSRSQGRFLGTEPEPDAVGLDSGHIRGAVNMPFMDFLTEDGFEKGPEELRALFQTKKVDLSQPLIATCRKGVTACHVALAAYLCGKPDVAVYDGSWSEWFRRAPPESRVSQGKSEKA",Km,purified protein [3],15.68 ± 2.86 mM
same,kcat,purified protein [3],101.73 s⁻¹
